Values quoted from earlier work in paper PMC8828474.

Target: Spike RBD (SARS-CoV-2) (UniProt P0DTC2)

**Q.** For bamlanivimab, which Kd is on record?
**A.** Its Kd is 0.8 nM.
